From patent publication US20050106100
Values joined by “and” are separate entries in the source; they are usually repeats but may differ in a detail not shown here. Identical values can stand only once.

How the values were obtained:
[1] = target: T1, Ac-Csa-PLG˜Hphe-YL-Ambh-Hynic (not fully specified)
T1 chain: XPLGXYL

[2] = target: T2, Ac-Inp-Cit-G˜Hphe-LA-Ahxh-Hynic (not fully specified)
T2 chain: XXGXLA

Ac-NGlu-POG˜Hphe-L-Hynic = target: T3, Ac-NGlu-POG˜Hphe-L-Hynic (not fully specified)
T3 chain: XPXGXL

[3] = target: T4, Ac-P-Cit-Aib˜Hphe-LA-Ahxh-Hynic (not fully specified)
T4 chain: PXXXLA

[4] = target: T5, Ac-P-Cit-Cit-LTA-Ahxh-Hynic
T5 chain: PXXLTA

Ac-P-Cit-G-Hphe-LA-Hynic = target: T6, Ac-P-Cit-G-Hphe-LA-Hynic
T6 chain: PXGXLA

[5] = target: T7, Ac-P-Cit-G˜Chg-LA-Ahxh-Hynic (not fully specified)
T7 chain: PXGXLA

Ac-P-Cit-G˜Hphe-LQ-Hynic = target: T8, Ac-P-Cit-G˜Hphe-LQ-Hynic (not fully specified)
T8 chain: PXGXLQ

[6] = target: T9, Ac-P-Cit-G˜Hphe-OL-Ahxh-Ac[C14] (not fully specified)
T9 chain: PXGXXL

[7] = target: T10, Ac-P-Cit-G˜Igl-LA-Ahxh-Hynic (not fully specified)
T10 chain: PXGXLA

[8] = target: T11, Ac-P-Cit-G˜Nle-LA-Ahxh-Hynic (not fully specified)
T11 chain: PXGXLA

[9] = target: T12, Ac-P-Cit-G˜S(OBn)-LA-Ahxh-Hynic (not fully specified)
T12 chain: PXGSLA

[10] = target: T13, Ac-P-Cit-G˜Tle-LA-Ahxh-Hynic (not fully specified)
T13 chain: PXGXLA

[11] = target: T14, Ac-P-DLeu-G˜LL-Ahxh-Hynic (not fully specified)
T14 chain: PLGLL

[12] = target: T15, Ac-P-NLys-R˜LTA-Ahxh-Hynic (not fully specified)
T15 chain: PXRLTA

[13] = target: T16, Ac-P-NMeArg-R˜LTA-Ambh-Hynic (not fully specified)
T16 chain: PRRLTA

[14] = target: T17, Ac-P-O(Me)2-G˜Hphe-L-Nle-Ahxh-Hynic (not fully specified)
T17 chain: PXGXLX

Ac-PL-DAla˜LL-Ahxh-Hynic = target: T18, Ac-PL-DAla˜LL-Ahxh-Hynic (not fully specified)
T18 chain: PLALL

[15] = target: T19, Ac-PL-NLys-LL-NHNH-Ac[C14]
T19 chain: PLXLL

[16] = target: T20, Ac-PL-NLys˜Ahp-YL-Ahxh-Ac[C14] (not fully specified)
T20 chain: PLXXYL

[17] = target: T21, Ac-PL-NLys˜Hphe-RL-Ahxh-Ac[C14] (not fully specified)
T21 chain: PLXXRL

[18] = target: T22, Ac-PL-NLys˜LL-Ambh-Ac[C14] (not fully specified)
T22 chain: PLXLL

[19] = target: T23, Ac-PL-Sar˜LL-Ahxh-Ac[C14] (not fully specified)
T23 chain: PLXLL

[20] = target: T24, Ac-PLG-Hphe-OL-Ahxh-Ac[C14]
T24 chain: PLGXXL

[21] = target: T25, Ac-PLG˜Ahp-YL-Ahxh-Ac[C14] (not fully specified)
T25 chain: PLGXYL

[22] = target: T26, Ac-PLG˜Hphe-Cit-L-Ahxh-Hynic (not fully specified)
T26 chain: PLGXXL

[23] = target: T27, Ac-PLG˜Hphe-K(Me)2-L-Ahxh-Hynic (not fully specified)
T27 chain: PLGXKL

[24] = target: T28, Ac-PLG˜Hphe-KL-Ahxh-Ac[C14] (not fully specified)
T28 chain: PLGXKL

[25] = target: T29, Ac-PLG˜Hphe-KL-Ahxh-Hynic
T29 chain: PLGXKL

[26] = target: T30, Ac-PLG˜Hphe-OLA-Ahxh-Hynic
T30 chain: PLGXXLA

[27] = target: T31, Ac-PLG˜Hphe-RL-Ahxh-Hynic
T31 chain: PLGXRL

[28] = target: T32, Ac-PLG˜Hphe-RLA-Ahxh-Hynic
T32 chain: PLGXRLA

[29] = target: T33, Ac-PLG˜Hphe-RLA-Ambh-Hynic
T33 chain: PLGXRLA

[30] = target: T34, Ac-PLG˜Hphe-YL-Ahxh-Hynic (not fully specified)
T34 chain: PLGXYL

Ac-PLG˜LAL-Ahxh-Hynic = target: T35, Ac-PLG˜LAL-Ahxh-Hynic
T35 chain: PLGLAL

Ac-PLG˜LL-Ambh-Hynic = target: T36, Ac-PLG˜LL-Ambh-Hynic
T36 chain: PLGLL

Ac-PLG˜LLA-Ahxh-Hynic = target: T37, Ac-PLG˜LLA-Ahxh-Hynic (not fully specified)
T37 chain: PLGLLA

Ac-PLG˜LOL-Ahxh-Hynic = target: T38, Ac-PLG˜LOL-Ahxh-Hynic (not fully specified)
T38 chain: PLGLXL

Ac-PLG˜LWA-Ahxh-Hynic = target: T39, Ac-PLG˜LWA-Ahxh-Hynic (not fully specified)
T39 chain: PLGLWA

Ac-PLG˜LY-Ahxh-Ac[C14] = target: T40, Ac-PLG˜LY-Ahxh-Ac[C14] (not fully specified)
T40 chain: PLGLY

Ac-PLG˜LYA-Ahxh-Hynic = target: T41, Ac-PLG˜LYA-Ahxh-Hynic (not fully specified)
T41 chain: PLGLYA

[31] = target: T42, Ac-PLG˜Pabu-Cit-L-Ahxh-Ac[C14] (not fully specified)
T42 chain: PLGXXL

[32] = target: T43, Ac-PLG˜S(OBn)-LL-Ahxh-Ac[C14] (not fully specified)
T43 chain: PLGSLL

[33] = target: T44, Ac-POG˜Hphe-L-Nle-Ahxh-Hynic
T44 chain: PXGXLX

Ac-POG˜LLA-Ahxh-Hynic = target: T45, Ac-POG˜LLA-Ahxh-Hynic
T45 chain: PXGLLA

[34] = target: T46, Ac-PRG˜Hphe-Dab-A-Ahxh-Hynic
T46 chain: PRGXXA

[35] = target: T47, Ac-PRG˜Hphe-LA-Ahxh-Hynic
T47 chain: PRGXLA

Ac-PRR˜LTA-Ahxh-Hynic = target: T48, Ac-PRR˜LTA-Ahxh-Hynic
T48 chain: PRRLTA

[36] = target: T49, Ac-Tic-Cit-G˜Hphe-SA-Ahxh-Hynic
T49 chain: XXGXSA

[37] = target: T50, H-NLys-PLG˜LYT-Ahxh-Hynic (not fully specified)
T50 chain: XPLGLYT

[38] = target: T51, H-γ-DGlu-PLG-LYT-Ahxh-Hynic (not fully specified)
T51 chain: EPLGLYT

[39] = target: T52, Hynic-Ahx-PLG˜Hphe-OLEE-OH
T52 chain: XPLGXXLEE

B1: MMP-2 (protein)
chain: APSPIIKFPGDVAPKTDKELAVQYLNTFYGCPKESCNLFVLKDTLKKMQKFFGLPQTGDLDQNTIETMRKPRCGNPDVANYNFFPRKPKWDKNQITYRIIGYTPDLDPETVDDAFARAFQVWSDVTPLRFSRIHDGEADIMINFGRWEHGDGYPFDGKDGLLAHAFAPGTGVGGDSHFDDDELWTLGEGQVVRVKYGNADGEYCKFPFLFNGKEYNSCTDTGRSDGFLWCSTTYNFEKDGKYGFCPHEALFTMGGNAEGQPCKFPFRFQGTSYDSCTTEGRTDGYRWCGTTEDYDRDKKYGFCPETAMSTVGGNSEGAPCVFPFTFLGNKYESCTSAGRSDGKMWCATTANYDDDRKWGFCPDQGYSLFLVAAHEFGHAMGLEHSQDPGALMAPIYTYTKNFRLSQDDIKGIQELYGASPDIDLGTGPTPTLGPVTPEICKQDIVFDGIAQIRGEIFFFKDRFIWRTVTPRDKPMGPLLVATFWPELPEKIDAVYEAPQEEKAVFFAGNEYWIYSASTLERGYPKPLTSLGLPPDVQRVDAAFNWSKNKKTYIFAGDKFWRYNEVKKKMDPGFPKLIADAWNAIPDNLDAVVDLQGGGHSYFFKGAYYLKLENQSLKSVKFGSIKSDWLGC
Kcat/Km [1]: 19500 M⁻¹ s⁻¹ | Kcat/Km [2]: 4580 M⁻¹ s⁻¹ | Kcat/Km (Ac-NGlu-POG˜Hphe-L-Hynic): 265 M⁻¹ s⁻¹ | Kcat/Km [3]: 275 M⁻¹ s⁻¹ | Kcat/Km [4]: 27300 M⁻¹ s⁻¹ | Kcat/Km (Ac-P-Cit-G-Hphe-LA-Hynic): > 250000 M⁻¹ s⁻¹ | Kcat/Km [5]: 14400 M⁻¹ s⁻¹ | Kcat/Km (Ac-P-Cit-G˜Hphe-LQ-Hynic): 171000 M⁻¹ s⁻¹ | Kcat/Km [6]: 42500 M⁻¹ s⁻¹ | Kcat/Km [7]: 189 M⁻¹ s⁻¹ | Kcat/Km [8]: 174000 M⁻¹ s⁻¹ | Kcat/Km [9]: > 250000 M⁻¹ s⁻¹ | Kcat/Km [10]: 164 M⁻¹ s⁻¹ | Kcat/Km [11]: 5010 M⁻¹ s⁻¹ | Kcat/Km [12]: 0 M⁻¹ s⁻¹ | Kcat/Km [13]: 879 M⁻¹ s⁻¹ | Kcat/Km [14]: 567000 M⁻¹ s⁻¹ | Kcat/Km (Ac-PL-DAla˜LL-Ahxh-Hynic): 0 M⁻¹ s⁻¹ | Kcat/Km [15]: 134000 M⁻¹ s⁻¹ | Kcat/Km [16]: 0 M⁻¹ s⁻¹ | Kcat/Km [17]: 102000 M⁻¹ s⁻¹ | Kcat/Km [18]: 68600 M⁻¹ s⁻¹ | Kcat/Km [19]: 111000 M⁻¹ s⁻¹ | Kcat/Km [20]: 53800 M⁻¹ s⁻¹ | Kcat/Km [21]: 38700 M⁻¹ s⁻¹ | Kcat/Km [22]: 157000 M⁻¹ s⁻¹ | Kcat/Km [23]: 72000 M⁻¹ s⁻¹ | Kcat/Km [24]: 103000 M⁻¹ s⁻¹ | Kcat/Km [25]: 78900 M⁻¹ s⁻¹ | Kcat/Km [26]: 29500 M⁻¹ s⁻¹ | Kcat/Km [27]: 242000 M⁻¹ s⁻¹ | Kcat/Km [28]: 64000 M⁻¹ s⁻¹ | Kcat/Km [29]: 197 M⁻¹ s⁻¹ | Kcat/Km [30]: > 100000 M⁻¹ s⁻¹ | Kcat/Km (Ac-PLG˜LAL-Ahxh-Hynic): 4380 M⁻¹ s⁻¹ | Kcat/Km (Ac-PLG˜LL-Ambh-Hynic): 33600 M⁻¹ s⁻¹ | Kcat/Km (Ac-PLG˜LLA-Ahxh-Hynic): 387000 M⁻¹ s⁻¹ | Kcat/Km (Ac-PLG˜LOL-Ahxh-Hynic): 91400 M⁻¹ s⁻¹ | Kcat/Km (Ac-PLG˜LWA-Ahxh-Hynic): > 500000 M⁻¹ s⁻¹ | Kcat/Km (Ac-PLG˜LY-Ahxh-Ac[C14]): 283000 M⁻¹ s⁻¹ | Kcat/Km (Ac-PLG˜LYA-Ahxh-Hynic): 404000 M⁻¹ s⁻¹ | Kcat/Km [31]: 0 M⁻¹ s⁻¹ | Kcat/Km [32]: 473000 M⁻¹ s⁻¹ | Kcat/Km [33]: 401000 M⁻¹ s⁻¹ | Kcat/Km (Ac-POG˜LLA-Ahxh-Hynic): > 500000 M⁻¹ s⁻¹ | Kcat/Km [34]: 591000 M⁻¹ s⁻¹ | Kcat/Km [35]: > 500000 M⁻¹ s⁻¹ | Kcat/Km (Ac-PRR˜LTA-Ahxh-Hynic): 10100 M⁻¹ s⁻¹ | Kcat/Km [36]: 3100 M⁻¹ s⁻¹ | Kcat/Km [37]: 85100 M⁻¹ s⁻¹ | Kcat/Km [38]: 153000 M⁻¹ s⁻¹ | Kcat/Km [39]: 83900 M⁻¹ s⁻¹ and 42500 M⁻¹ s⁻¹
